Here are results for one protein from publication PMC11440629 (Advanced Functional Materials, 2023).

This series concerns the molecule itself. Kind of series: release from hydrogel.

B1: NT2RepCT (other)
chain: MSHTTPWTNPGLAENFMNSFMQGLSSMPGFTASQLDDMSTIAQSMVQSIQSLAAQGRTSPNKLQALNMAFASSMAEIAASEEGGGSLSTKTSSIASAMSNAFLQTTGVVNQPFINEITQLVSMFAQAGMNDVSAGNSGRGQGGYGQGSGGNAAAAAAAAAAAAAAAGQGGQGGYGRQSQGAGSAAAAAAAAAAAAAAGSGQGGYGGQGQGGYGQSGNSVTSGGYGYGTSAAAGAGVAAGSYAGAVNRLSSAEAASRVSSNIAAIASGGASALPSVISNIYSGVVASGVSSNEALIQALLELLSALVHVLSSASIGNVSSVGVDSTLNVVQDSVGQYVG
B1: the binding result is “binds”.
